# Substitutions are numbered along the chain they refer to.
# T1: human IL-11Rα on transfected cells (human, UniProt Q14626 23-422)
# T1 sequence: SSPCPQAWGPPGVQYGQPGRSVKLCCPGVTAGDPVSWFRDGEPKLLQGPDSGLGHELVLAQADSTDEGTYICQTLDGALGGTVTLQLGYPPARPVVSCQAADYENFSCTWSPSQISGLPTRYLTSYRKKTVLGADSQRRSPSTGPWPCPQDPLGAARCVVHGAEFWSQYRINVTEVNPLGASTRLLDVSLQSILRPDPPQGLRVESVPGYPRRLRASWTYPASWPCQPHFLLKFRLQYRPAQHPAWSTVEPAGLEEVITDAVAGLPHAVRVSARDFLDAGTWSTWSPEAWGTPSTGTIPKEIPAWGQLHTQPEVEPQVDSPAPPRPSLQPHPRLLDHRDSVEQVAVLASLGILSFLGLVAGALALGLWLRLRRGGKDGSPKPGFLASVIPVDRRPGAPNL
# T2: human IL-11Rα (form used in the assay not stated) (human, UniProt Q14626 23-363, limits assumed)
# T2 construct: also called hIL-11R; hIL-11Rα
# T2 sequence: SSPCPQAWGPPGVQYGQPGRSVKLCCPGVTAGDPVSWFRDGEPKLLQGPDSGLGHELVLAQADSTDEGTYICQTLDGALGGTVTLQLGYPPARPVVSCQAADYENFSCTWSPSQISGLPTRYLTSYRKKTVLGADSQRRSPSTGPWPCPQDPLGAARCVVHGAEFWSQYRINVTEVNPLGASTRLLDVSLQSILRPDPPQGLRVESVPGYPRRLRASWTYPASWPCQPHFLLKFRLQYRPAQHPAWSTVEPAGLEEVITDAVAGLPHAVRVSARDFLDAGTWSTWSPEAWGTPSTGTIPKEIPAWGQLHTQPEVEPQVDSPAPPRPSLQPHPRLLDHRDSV
# B1: hu8E2-TS-14 (antibody, V domains shown)
# VH: EVQLLESGGGLVQPGGSLRLSCAASGFTFSWYSMTWVRQAPGKGLEWVSSIVPSGGHTQYADSVKGRFTISRDNSKNTLYLQMNSLRAEDTAVYYCAKGPGWGSFDLWGRGTLVTVSS
# VL: DIQMTQSPSSLSASVGDRVTITCQASQDINNYLNWYQQKPGKAPKLLIYDASNLQTGVPSRFSGSGSGTDFTFTISSLQPEDIATYYCQQHDNQSPTFGPGTKVDIK
# B2: hu8E2-TS-92 (antibody, V domains shown)
# VH: B1 VH with Y32W, M34I
# VL: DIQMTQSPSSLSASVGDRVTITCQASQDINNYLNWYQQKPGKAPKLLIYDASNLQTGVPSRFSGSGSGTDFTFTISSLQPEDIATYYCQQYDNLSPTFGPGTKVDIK
# B3: hu8E2-TS-17 (antibody, V domains shown)
# VH: B1 VH
# VL: B1 VL with Q89S, H91F, D92E, N93S
# B4: hu8E2-TS-6 (antibody, V domains shown)
# VH: B1 VH
# VL: B1 VL with Q89E, H91F, D92E, N93S
# B5: hu8E2-TS-55 (antibody, V domains shown)
# VH: B1 VH
# VL: B1 VL with H91Y, D92E, N93T, S95T, T97A
# B6: hu8E2-TS-49 (antibody, V domains shown)
# VH: B1 VH
# VL: B1 VL with H91Y, D92E, N93S, S95A, T97E
# B7: hu8E2-TS-71 (antibody, V domains shown)
# VH: B1 VH with S30W, W31R, Y32W, M34T
# VL: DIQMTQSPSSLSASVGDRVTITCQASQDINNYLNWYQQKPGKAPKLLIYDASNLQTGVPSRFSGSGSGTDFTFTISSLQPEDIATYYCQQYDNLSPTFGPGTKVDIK
# B8: hu8E2-TS-29 (antibody, V domains shown)
# VH: B1 VH
# VL: B1 VL with H91S, D92E, N93E
# B9: hu8E2-TS-9 (antibody, V domains shown)
# VH: B1 VH
# VL: B1 VL with H91A, D92E, N93E
# B10: hu8E2-TS-32 (antibody, V domains shown)
# VH: B1 VH
# VL: B1 VL with Q89T, H91W, D92E, N93T
# B11: hu8E2-TS-64 (antibody, V domains shown)
# VH: B1 VH
# VL: B1 VL with H91Y, D92E, N93S, S95W, T97Q
# B12: hu8E2-TS-57 (antibody, V domains shown)
# VH: B1 VH
# VL: B1 VL with H91Y, D92E, N93T, S95M, T97L
# B13: hu8E2-TS-21 (antibody, V domains shown)
# VH: B1 VH
# VL: B1 VL with H91S, D92E, N93S
# B14: hu8E2-TS-63 (antibody, V domains shown)
# VH: B1 VH
# VL: B1 VL with H91Y, N93T, S95Q, T97N
# B15: hu8E2-TS-20 (antibody, V domains shown)
# VH: B1 VH
# VL: B1 VL with H91N, D92E, N93S
# B16: hu8E2-TS-51 (antibody, V domains shown)
# VH: B1 VH
# VL: B1 VL with H91Y, D92E, N93S, S95W, T97F
# B17: hu8E2-TS-79 (antibody, V domains shown)
# VH: B1 VH with S30A, Y32F, M34V
# VL: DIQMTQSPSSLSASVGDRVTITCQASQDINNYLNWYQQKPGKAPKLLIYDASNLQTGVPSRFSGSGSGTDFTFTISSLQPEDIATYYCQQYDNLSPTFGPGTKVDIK
# B18: hu8E2-TS-58 (antibody, V domains shown)
# VH: B1 VH
# VL: B1 VL with H91Y, D92E, N93T, S95Q, T97F
# B19: hu8E2-TS-97 (antibody, V domains shown)
# VH: B1 VH with S54W, G55A, G56D, H57Y
# VL: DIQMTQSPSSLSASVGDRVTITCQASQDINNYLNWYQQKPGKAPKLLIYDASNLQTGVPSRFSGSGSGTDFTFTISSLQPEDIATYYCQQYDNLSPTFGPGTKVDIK
# B20: hu8E2-TS-7 (antibody, V domains shown)
# VH: B1 VH
# VL: B1 VL with D92E
# B21: hu8E2-TS-89 (antibody, V domains shown)
# VH: B1 VH with S30W, W31R, Y32W, M34I
# VL: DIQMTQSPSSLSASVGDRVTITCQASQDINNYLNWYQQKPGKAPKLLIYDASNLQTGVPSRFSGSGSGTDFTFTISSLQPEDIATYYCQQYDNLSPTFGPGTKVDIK
# B22: hu8E2-TS-88 (antibody, V domains shown)
# VH: B1 VH with S30W, W31R, Y32W, M34T
# VL: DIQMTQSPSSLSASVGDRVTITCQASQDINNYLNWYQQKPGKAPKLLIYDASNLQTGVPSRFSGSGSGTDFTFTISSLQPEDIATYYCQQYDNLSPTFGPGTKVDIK
# B23: hu8E2-TS-2 (antibody, V domains shown)
# VH: B1 VH
# VL: B1 VL with H91A, D92E, N93D
# B24: hu8E2-TS-76 (antibody, V domains shown)
# VH: B1 VH with S30W, W31R, Y32W, M34I
# VL: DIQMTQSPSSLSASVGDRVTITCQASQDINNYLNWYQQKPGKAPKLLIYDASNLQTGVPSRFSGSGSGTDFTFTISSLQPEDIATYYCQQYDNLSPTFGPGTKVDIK
# B25: hu8E2-TS-22 (antibody, V domains shown)
# VH: B1 VH
# VL: B1 VL with H91F, D92E, N93T
# B26: hu8E2-TS-82 (antibody, V domains shown)
# VH: B1 VH with S30W, W31R, Y32W, M34V
# VL: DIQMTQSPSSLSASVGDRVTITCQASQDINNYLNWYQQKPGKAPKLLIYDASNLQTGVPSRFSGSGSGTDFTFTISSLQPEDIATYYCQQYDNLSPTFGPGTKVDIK
# B27: hu8E2-TS-91 (antibody, V domains shown)
# VH: B1 VH with S30G, Y32W, M34L
# VL: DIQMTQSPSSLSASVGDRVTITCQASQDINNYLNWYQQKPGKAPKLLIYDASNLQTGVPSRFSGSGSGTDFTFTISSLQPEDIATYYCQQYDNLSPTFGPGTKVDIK
# B28: hu8E2-TS-4 (antibody, V domains shown)
# VH: B1 VH
# VL: B1 VL with D92E, N93F
# B29: hu8E2-TS-66 (antibody, V domains shown)
# VH: B1 VH with S30A, Y32W, M34I, T35A
# VL: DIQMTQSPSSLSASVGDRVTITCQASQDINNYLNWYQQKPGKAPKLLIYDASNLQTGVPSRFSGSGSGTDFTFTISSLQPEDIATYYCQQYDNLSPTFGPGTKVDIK
# B30: hu8E2-TS-69 (antibody, V domains shown)
# VH: B1 VH with S30G, Y32W, M34V
# VL: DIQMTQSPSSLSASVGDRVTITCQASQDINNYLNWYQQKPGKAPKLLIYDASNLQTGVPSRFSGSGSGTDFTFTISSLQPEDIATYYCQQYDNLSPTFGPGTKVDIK
# Target: T1, human IL-11Rα on transfected cells
# Test: cell-based or functional assay
Binder,Fold increase in potency relative to 8E2,IC50
B1,1.6 fold,0.52 µg/mL
B2,2.3 fold,0.18 µg/mL
B3,2.3 fold,0.35 µg/mL
B4,1.4 fold,0.41 µg/mL
B5,4.8 fold,0.21 µg/mL
B6,5.2 fold,0.19 µg/mL
B7,3.8 fold,0.29 µg/mL
B8,2.5 fold,0.33 µg/mL
B9,3.1 fold,0.68 µg/mL
B10,2.4 fold,0.41 µg/mL
B11,5.4 fold,0.26 µg/mL
B12,3.9 fold,0.25 µg/mL
B13,2.7 fold,0.31 µg/mL
B14,5.1 fold,0.27 µg/mL
B15,0.6 fold,1.3 µg/mL
B16,3.6 fold,0.28 µg/mL
B17,5.3 fold,0.21 µg/mL
B18,6 fold,0.23 µg/mL
B19,1.6 fold,0.26 µg/mL
B20,3.3 fold,0.63 µg/mL
B21,1.4 fold,0.12 µg/mL
B22,3 fold,0.36 µg/mL
B23,7.9 fold,0.26 µg/mL
B24,3.4 fold,0.32 µg/mL
B25,2 fold,0.4 µg/mL
B26,4.3 fold,0.26 µg/mL
B27,1.3 fold,0.34 µg/mL
B28,6.6 fold,0.31 µg/mL
B29,0.5 fold,2.84 µg/mL
B30,0.9 fold,1.46 µg/mL

# Target: T2, human IL-11Rα (form used in the assay …)
# Test: Biacore, pH 8.5, 37°C
row,Binder,Kd
1,B1,0.342 nM
2,B2,3.2 nM
3,B3,0.39 nM
4,B4,0.289 nM
5,B5,0.483 nM
6,B6,1.5 nM
7,B7,2.49 nM
8,B8,1.06 nM
9,B9,2.29 nM
10,B10,9.56 nM
11,B11,0.636 nM
12,B12,0.658 nM
13,B13,0.23 nM
14,B14,0.642 nM
15,B15,0.284 nM
16,B16,0.455 nM
17,B17,2.13 nM
18,B18,0.957 nM
19,B19,1.22 nM
20,B20,0.108 nM
21,B21,4.5 nM
22,B22,2.25 nM
23,B23,0.529 nM
24,B24,2.73 nM
25,B25,0.838 nM
26,B26,2.05 nM
27,B27,4.73 nM
28,B28,0.295 nM
29,B29,7.46 nM
30,B30,3.56 nM
